The values that follow come from article PMC4750549.

The target of assay [1] is CD200 (Rattus norvegicus) (UniProt P04218). As to conditions: cited from earlier work.
A further assay deals with CD200 (Mus musculus) (UniProt O54901). As to conditions: cited from earlier work.
Assay [2] addresses rabbit CD200 rCD4d3+4 chimeric protein, biotinylated (rabbit (Oryctolagus cuniculus)). The assay can be described thus: SPR; BIAcore 3000, 37 °C, 10 mM HEPES pH 7.5, 150 mM NaCl, 3 mM EDTA, 0.02% P20; biotinylated rCD4d3+4 chimeras from concentrated tissue culture supernatants immobilised on streptavidin coated CM5 chip; purified monomeric soluble protein passed over in increasing concentrations; equilibrium binding, Langmuir isotherm. A general note: Surface plasmon resonance follows binding to a sensor surface in real time, without labels.

Another assay has as its target CD200 (Homo sapiens) (UniProt P41217). As to conditions: cited from earlier work.
Chain of UniProt P41217 (P41217 31-232): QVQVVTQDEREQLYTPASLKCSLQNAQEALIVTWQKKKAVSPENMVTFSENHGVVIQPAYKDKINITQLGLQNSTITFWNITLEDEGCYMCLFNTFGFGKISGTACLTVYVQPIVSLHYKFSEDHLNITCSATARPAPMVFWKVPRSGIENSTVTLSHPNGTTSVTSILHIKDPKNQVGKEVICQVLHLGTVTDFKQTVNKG
Assay [3] addresses rat CD200R rCD4d3+4 chimeric protein, biotinylated (rat) (UniProt Q9ES58). The assay can be described thus: SPR; BIAcore 3000, 37 °C, 10 mM HEPES pH 7.5, 150 mM NaCl, 3 mM EDTA, 0.02% P20; biotinylated rCD4d3+4 chimeras from concentrated tissue culture supernatants immobilised on streptavidin coated CM5 chip; purified monomeric soluble protein passed over in increasing concentrations; equilibrium binding, Langmuir isotherm.

The target in assay [4] is rabbit CD200R rCD4d3+4 chimeric protein, biotinylated (rabbit (Oryctolagus cuniculus)). The assay is described as above.
Chain of rabbit CD200R rCD4d3+4 chimeric protein, biotinylated (rabbit (Oryctolagus cuniculus)) (main, as listed by the source mutant): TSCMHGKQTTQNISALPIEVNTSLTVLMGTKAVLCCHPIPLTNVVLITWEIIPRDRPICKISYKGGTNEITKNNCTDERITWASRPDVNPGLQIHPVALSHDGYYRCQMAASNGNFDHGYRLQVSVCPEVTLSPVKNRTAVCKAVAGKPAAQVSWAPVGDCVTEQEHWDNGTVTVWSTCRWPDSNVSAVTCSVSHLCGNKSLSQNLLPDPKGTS

Chain of UniProt P04218 (P04218 31-232): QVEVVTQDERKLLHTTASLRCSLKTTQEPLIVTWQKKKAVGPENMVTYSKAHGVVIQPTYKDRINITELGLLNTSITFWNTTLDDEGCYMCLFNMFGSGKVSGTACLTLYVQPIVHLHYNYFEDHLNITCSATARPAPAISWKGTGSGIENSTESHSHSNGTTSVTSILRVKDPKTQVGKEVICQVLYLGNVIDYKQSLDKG
Chain of UniProt O54901 (O54901 31-232): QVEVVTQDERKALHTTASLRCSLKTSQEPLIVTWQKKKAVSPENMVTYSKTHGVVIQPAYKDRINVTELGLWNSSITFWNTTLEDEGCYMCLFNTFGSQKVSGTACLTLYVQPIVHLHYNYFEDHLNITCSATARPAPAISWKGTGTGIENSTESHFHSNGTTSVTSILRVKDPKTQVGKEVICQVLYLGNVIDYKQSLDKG

Turning to CD200R (from UniProt Q9ES58), the equilibrium dissociation constant (Kd) in assay [1] is 1.5 µM.

For the substance CD200R (from UniProt Q9ES57), the Kd in the assay with CD200 (Mus musculus) is 4 µM. As for “soluble recombinant rabbit CD200R (extracellular region, His tag) (from UniProt A0A0S4XR64 1-238) (receptor)”, the Kd in assay [2] was 3.3 to 3.4 µM. In the case of CD200R (from UniProt Q8TD46), the Kd with CD200 (Homo sapiens) was 0.5 µM. Turning to “soluble recombinant rabbit CD200 (extracellular region, His tag) (from UniProt A0A0S4XRM6 1-233) (ligand)”, the Kd was 5.1 µM in assay [3] and 3.3 to 3.4 µM in assay [4].

In general, Kd refers to the equilibrium constant for the complex coming apart.
